Data as given in publication PMC4901319.

Key:
R163W hCCS (human) [1] = target: R163W hCCS (human) (UniProt O14618); test: SEC; GE Superdex 200 10/300, TBS with 1 mM DTT, 0.5 ml/min, 500 μl loaded; high concentrations (series from 26 up to 918 μM before the column); monomer to dimer
R163W hCCS (human) [2] = target: R163W hCCS (human) (UniProt O14618); test: SEC-MALS; Agilent BioSEC-3 column, 20 mM Tris-HCl, 150 mM NaCl (TBS) with 1 mM DTT, 20 °C; monomer to dimer
[3] = target: copper chaperone for SOD1 (hCCS), wild-type, zinc metalated (human) (UniProt O14618); test: SEC; reducing conditions as above but with metal apo (zinc deficient) SOD1, mixed 1:1 with Zn-hCCS; Agilent BioSEC-3, TBS with 1 mM DTT, 20 °C
[4] = target: copper chaperone for SOD1 (hCCS), wild-type, zinc metalated (human) (UniProt O14618); test: SEC-MALS; Agilent BioSEC-3 column, 20 mM Tris-HCl, 150 mM NaCl (TBS) with 1 mM DTT, 20 °C; monomer to dimer
[5] = target: copper chaperone for SOD1 (hCCS), wild-type, zinc metalated (human) (UniProt O14618); test: SEC; non-reducing time course with metal apo SOD1: SOD1 reduced and desalted into oxygen purged TBS, mixed with hCCS (copper apo/zinc holo or copper(I) loaded), incubated at 20 °C (8 minutes to 20 hours), then SEC

| stoichiometry N (R163W hCCS (human) [1]) | stoichiometry N (R163W hCCS (human) [2]) | stoichiometry N [3] | stoichiometry N [4] | stoichiometry N [5] | Substance |
| --- | --- | --- | --- | --- | --- |
| 2 | 2 |  |  |  | R163W hCCS (from UniProt O14618 1-274) (natural protein) |
|  |  | 2 | 2 | 2 | copper chaperone for SOD1 (hCCS), wild-type, zinc metalated (from UniProt O14618 1-274) (natural protein) |
